Values joined by “and” are separate entries in the source; they are usually repeats but may differ in a detail not shown here. Equal values may be shown once.
Tested on: CT26 tumors
Test: CT26 mouse colon carcinoma syngeneic model
Format: in vivo
Conditions: CT26; groups of 10 mice; CR = tumor volume ≤25 mm^3 over at least 3 successive measurements

B1: anti mu PD1 (17D2 murinized, VH2xVL1x)[mu IgG2a/k] DANA: Mouse anti-PD-1 antibody, heavy chain SEQ ID NO: 3, light chain SEQ ID NO: 4 (antibody)
heavy: QVTLKESGPGILQSSQTLSLTCTFSGFSLSTYGMGVGWIRQPSGKGLEWLTNIWWDDDKYYNSSLKNRLTVSKDTANNQVFLKFTSVDIADTATYYCGRMEWGGSFDYWGQGIMVTVSSAKTTAPSVYPLAPVCGDTTGSSVTLGCLVKGYFPEPVTLTWNSGSLSSGVHTFPAVLQSDLYTLSSSVTVTSSTWPSQSITCNVAHPASSTKVDKKIEPRGPTIKPCPPCKCPAPNLLGGPSVFIFPPKIKDVLMISLSPIVTCVVVAVSEDDPDVQISWFVNNVEVHTAQTQTHREDYASTLRVVSALPIQHQDWMSGKEFKCKVNNKDLPAPIERTISKPKGSVRAPQVYVLPPPEEEMTKKQVTLTCMVTDFMPEDIYVEWTNNGKTELNYKNTEPVLDSDGSYFMYSKLRVEKKNWVERNSYSCSVVHEGLHNHHTTKSFSRTPGK
light: DIVMTQTPVSLSVSLGGQVSISCRSSQSLEHRNGITFLSWYLQKPGQSPQLLIYKVSNRFSGISDRFSGRGSGTDFVLQINRVEPDDLGVYYCGQGTHYPLTFGSGTKLEIKRADAAPTVSIFPPSSEQLTSGGASVVCFLNNFYPKDINVKWKIDGSERQNGVLNSWTDQDSKDSTYSMSSTLTLTKDEYERHNSYTCEATHKTSTSPIVKSFNRNEC
For B1, the “complete responses (CR)” value was “did not lead to any complete responses and 0/10”.
